{"source": "paper PMC11272584", "about": "(Nature Metabolism, 2024)", "key": {"GIPR R12Q (human)": {"target": "GIPR R12Q (human) (UniProt P48546)"}, "GIPR A150T (human)": {"target": "T1, GIPR A150T (human) (UniProt P48546)", "T1 sequence": "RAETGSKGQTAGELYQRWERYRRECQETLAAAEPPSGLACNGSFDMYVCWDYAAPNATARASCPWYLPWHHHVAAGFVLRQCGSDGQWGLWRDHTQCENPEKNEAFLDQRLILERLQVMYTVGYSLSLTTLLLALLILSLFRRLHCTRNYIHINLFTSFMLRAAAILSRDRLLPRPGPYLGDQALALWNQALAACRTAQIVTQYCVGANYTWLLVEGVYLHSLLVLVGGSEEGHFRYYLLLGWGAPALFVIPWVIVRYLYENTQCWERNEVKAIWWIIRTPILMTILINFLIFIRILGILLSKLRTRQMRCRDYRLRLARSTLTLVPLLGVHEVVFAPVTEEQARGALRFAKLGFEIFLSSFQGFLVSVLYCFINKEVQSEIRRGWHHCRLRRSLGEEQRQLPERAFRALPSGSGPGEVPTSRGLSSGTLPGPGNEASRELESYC"}, "GIPR T25R (human)": {"target": "T2, GIPR T25R (human) (UniProt P48546)", "T2 sequence": "T1 sequence with T4R, T129A"}}, "note": "Substitutions are numbered along the chain they refer to."}
{"substance": "β-arrestin 2 (Rluc8-Arrestin-3-Sp1) (from UniProt P32121 1-409) (natural protein)", "values": [{"measurement": "β-arrestin 2 recruitment (BRET) on stimulation with GIP(1-42): logEC50 (Arrestin) (log M (inferred))", "setting": "GIPR R12Q (human)", "result": -8.72}, {"measurement": "β-arrestin 2 recruitment (BRET) on stimulation with GIP(1-42): logEC50 (Arrestin) (log M (inferred))", "setting": "GIPR A150T (human)", "result": -8.92}, {"measurement": "β-arrestin 2 recruitment (BRET) on stimulation with GIP(1-42): logEC50 (Arrestin) (log M (inferred))", "setting": "GIPR T25R (human)", "result": -9.3}]}
